According to the supplement of paper PMC10567573:

B1: OAS1 (parent)
chain: LQLGEGVEFDVLPAFDALGQLTGG
B2: EMID1 (parent)
chain: FTETNNHWPQGPTGPPGPPGPMGP
B3: KCNA4 (parent)
chain: YQSGGRLKRPVNVPFDIFTEEVKF

Variants of: B1
Test: protein stability index of a GFP-peptide fusion (GPS, HEK-293T) (PSI 1-6); higher = more stable
Details: c terminus: a fixed tail appended
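Also: lentivirally expressed fusions sorted by FACS into six bins by GFP to DsRed ratio, PSI derived from sequencing read proportions per bin multiplied by bin number.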

Protein stability index, by site and new letter:
L12: S 3.82, T 2.4, V 2.24, W 1.13, Y 1.72
P13: D 1.4, G 1.31, H 2.21, N 2.69, R 1.29, Y 2.03
A14: C 1.37, D 1.67, G 1.88, H 1.58, I 1.48, K 1.61, N 1.86, P 2.02, Q 2.46, R 1.29, S 1.55, T 2.34, V 1.19, Y 1.53
F15: A 2.92, C 1.86, D 3.12, E 3.57, G 3.56, H 3.1, I 2.27, K 4.1, L 2.48, M 1.96, P 3.45, R 2.74, S 2.73, T 3.48, V 1.65, W 1.22, Y 1.47
D16: A 1.79, C 1.34, H 2.26, I 3.52, K 1.81, P 2.46, Q 2.29, R 1.31, S 1.07, T 1.99
A17: C 2.01, D 2.14, F 3.94, G 2.01, H 1.76, I 1.53, L 1.9, M 2.14, N 2.28, P 2.41, Q 1.61, R 2.05, S 1.84, T 2.6, V 2.86, W 3.13, Y 2.48
L18: A 3.35, C 2.62, D 3.47, E 3.1, F 1.14, G 3.58, I 1.26, M 1.66, N 2.17, Q 2.36, R 2.79, S 2.38, T 2.48, V 2, W 3.14, Y 2.13
G19: A 1.77, C 2.11, D 2.91, E 1.61, F 1.76, H 1.98, K 2.3, L 2.67, N 2, P 1.79, Q 1.61, S 1.54, T 2.01, V 1.45, Y 1.84
Q20: C 1.29, D 2.65, E 2.02, F 1.79, G 1.82, H 2.94, I 2.06, K 1.9, L 1.02, M 1.82, N 2.28, P 1.78, R 1.51, S 1.77, T 1.76, V 2.01, Y 2.09
L21: A 2.22, C 3.05, D 3.43, E 2.5, F 2.53, G 2.36, H 1.68, I 2.91, K 3.12, N 2.32, P 2.9, Q 3.62, S 2.06, T 1.89, V 2.22, Y 1.51
T22: A 3.87, C 2.22, D 1.97, E 2.75, F 2.69, G 2.05, H 2.06, K 2.04, M 1.07, N 1.49, P 1.9, Q 1.14, S 1.73, V 1.86, Y 1.08
G23: A 2.33, C 1.52, D 2.13, E 2.26, F 1.51, H 1.58, I 1.19, K 2.13, L 1.4, M 1.13, P 2.03, Q 2.58, R 2.68, S 1.74, T 1.67, V 2.33, Y 1.34
G24: D 1.94, E 2.31, F 1.17, H 3.16, I 3.05, K 2.49, N 1.5, P 1.64, Q 1.98, S 1.81, T 1.48, W 1.45, Y 2.55

Variants of: B2
Test: as above
Details: c terminus: a fixed tail appended

Protein stability index, by site and new letter:
P15: C 2.68, D 2.15, E 2.66, F 2.11, G 2.44, H 2.62, I 2.24, K 2.27, L 2.34, M 2.02, N 2.25, Q 2.21, R 1.69, S 2.88, V 1.93, W 1.75, Y 2.58
P16: A 2.65, C 2.5, D 2.56, E 2.54, F 2.02, G 2.4, I 2.33, K 1.83, L 2.14, M 2.47, N 2.23, R 2.52, S 2.1, T 2.58, V 3.19, Y 2.07
P18: C 1.53, D 2.68, E 2.11, F 2, G 1.82, I 1.93, K 2.51, L 2.17, M 1.68, N 1.47, Q 1.93, R 2.56, S 2.45, V 2.37, W 2.55, Y 2.33
P19: D 2.68, E 2.19, F 1.79, G 2.79, I 2.72, K 1.94, L 2.41, M 1.93, N 1.8, S 2, V 1.89, Y 1.36

Variants of: B3
Test: as above
Details: c terminus: a fixed tail appended

Protein stability index: each site, then its substitutions
Y1: A 2.82, C 2.81, D 3.12, E 3.08, F 1.6, G 3.48, H 2.88, I 1.93, K 2.88, L 3.97, M 2.69, N 3.04, P 2.29, Q 3.33, R 3.12, S 3, T 2.88
Q2: C 2.63, D 2.97, E 2.73, F 2.19, G 1.77, I 1.93, K 2.14, L 1.64, M 2.56, N 2.12, P 2, R 2.22, S 2.58, T 1.62, V 3.32, W 1.48, Y 1.55
S3: A 1.7, C 1.69, D 3.3, E 2.57, F 1.51, G 2.05, H 2.5, I 1.63, K 2.27, L 2.13, N 1.98, P 1.7, R 1.37, T 2.32, V 1.75, W 2.23, Y 1.59
G4: A 2.09, C 1.74, D 1.96, E 1.99, F 1.71, H 2.33, I 2.36, K 2.12, L 2.77, M 2.08, N 1.73, P 3.26, R 2.14, S 1.99, T 2.2, V 1.78, W 2.56, Y 1.27
G5: A 2.32, C 1.73, D 2.11, E 2.29, F 1.6, H 3.03, I 1.72, K 2.14, L 1.49, M 1.77, N 1.94, P 2.53, Q 2.08, R 1.8, S 1.81, T 2.7, V 1.63, W 1.59, Y 1.26
R6: A 2.19, C 1.26, D 2.23, E 1.63, G 1.71, H 2.14, I 1.63
